Here are results for 42 molecules from publication PMC10681739, “High-throughput data and modeling reveal insights into the mechanisms of cooperative DNA-binding by transcription factor proteins”.

The data set concerns the target ETS1:RUNX1 (Homo sapiens, UniProt P14921;Q01196 full;full). In words: gcPBM; 1 nM ETS1 + 25 nM RUNX1, anti-ETS1 signal, normalised. As to conditions: tags: N-terminal GST (pDEST15), kept (PMC6008103); copies: 1;1; label: surface-attached array probe.

Sequence of ETS1:RUNX1 (P14921 whole entry, chain 1 of 2): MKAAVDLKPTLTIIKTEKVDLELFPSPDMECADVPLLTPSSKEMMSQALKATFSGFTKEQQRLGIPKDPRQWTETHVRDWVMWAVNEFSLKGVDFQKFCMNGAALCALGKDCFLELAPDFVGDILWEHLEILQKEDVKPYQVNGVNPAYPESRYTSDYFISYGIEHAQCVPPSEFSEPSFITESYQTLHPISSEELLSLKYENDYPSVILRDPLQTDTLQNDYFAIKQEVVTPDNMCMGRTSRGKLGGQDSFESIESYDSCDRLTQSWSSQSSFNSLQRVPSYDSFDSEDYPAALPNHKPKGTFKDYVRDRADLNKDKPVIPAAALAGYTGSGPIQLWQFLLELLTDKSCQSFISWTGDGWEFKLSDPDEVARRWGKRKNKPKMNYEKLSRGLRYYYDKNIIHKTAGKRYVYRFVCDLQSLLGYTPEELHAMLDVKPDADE
Sequence of ETS1:RUNX1 (Q01196 whole entry, chain 2 of 2): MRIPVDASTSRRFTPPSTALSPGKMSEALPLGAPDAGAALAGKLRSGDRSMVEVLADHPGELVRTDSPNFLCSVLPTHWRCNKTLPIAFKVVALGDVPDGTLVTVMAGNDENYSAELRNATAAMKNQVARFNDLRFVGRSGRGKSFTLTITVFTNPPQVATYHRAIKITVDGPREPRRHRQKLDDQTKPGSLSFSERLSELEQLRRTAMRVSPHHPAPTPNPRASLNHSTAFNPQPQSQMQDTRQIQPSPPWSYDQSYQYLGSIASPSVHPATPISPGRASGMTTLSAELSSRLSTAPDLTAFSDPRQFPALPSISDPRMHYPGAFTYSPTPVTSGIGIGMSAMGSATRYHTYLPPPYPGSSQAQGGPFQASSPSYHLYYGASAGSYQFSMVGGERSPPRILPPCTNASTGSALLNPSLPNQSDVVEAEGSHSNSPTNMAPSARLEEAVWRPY

B1: Table S2 A row 1234 (dsDNA)
DNA 1: GCTGGTATGGCAGGAAGTTTCTCACCACAGTATACT
DNA 2: AGTATACTGTGGTGAGAAACTTCCTGCCATACCAGC
For B1, the binding signal is 8760 PBM fluorescence, median of replicate spots.

B2: Table S2 A row 1419 (dsDNA)
DNA 1: TTCACTTCCACCACTTCCTGTGGGTTTTGTTCATCC
DNA 2: GGATGAACAAAACCCACAGGAAGTGGTGGAAGTGAA
In the case of B2, the binding signal is 7320 PBM fluorescence, median of replicate spots.

B3: Table S2 A row 288 (dsDNA)
DNA 1: CATAGACCGGATGCCTCGTCAACCACAGAAACCAAT
DNA 2: ATTGGTTTCTGTGGTTGACGAGGCATCCGGTCTATG
Turning to B3, the binding signal was 11200 PBM fluorescence, median of replicate spots.

B4: Table S2 A row 658 (dsDNA)
DNA 1: AGCTAGGACAGGATGTGAAAACCACACTGACAAAGT
DNA 2: ACTTTGTCAGTGTGGTTTTCACATCCTGTCCTAGCT
B4: the binding signal is 11800 PBM fluorescence, median of replicate spots.

B5: Table S2 A row 550 (dsDNA)
DNA 1: AGCAGGTATACCACTTCCTGTGGTTATCATTTGAGG
DNA 2: CCTCAAATGATAACCACAGGAAGTGGTATACCTGCT
For B5, the binding signal was 8000 PBM fluorescence, median of replicate spots.

B6: Table S2 A row 186 (dsDNA)
DNA 1: GAAGTGTGCTCTTCCGGTACCTGCGGTTCGTTGCGC
DNA 2: GCGCAACGAACCGCAGGTACCGGAAGAGCACACTTC
Turning to B6, the binding signal was 7140 PBM fluorescence, median of replicate spots.

B7: Table S2 A row 1376 (dsDNA)
DNA 1: CTCTGGCAGGAAGCTCTGAGGGCTAAACCACAAAAA
DNA 2: TTTTTGTGGTTTAGCCCTCAGAGCTTCCTGCCAGAG
Turning to B7, the binding signal was 8390 PBM fluorescence, median of replicate spots.

B8: Table S2 A row 793 (dsDNA)
DNA 1: GTTCAGCAGGAAGTGGATGTGGATGTGTGGTTGCCA
DNA 2: TGGCAACCACACATCCACATCCACTTCCTGCTGAAC
Turning to B8, the binding signal was 7060 PBM fluorescence, median of replicate spots.

B9: Table S2 A row 144 (dsDNA)
DNA 1: GCCACACTGGCGGAAATGGTGGTTACTGTTCGAGCC
DNA 2: GGCTCGAACAGTAACCACCATTTCCGCCAGTGTGGC
Consider B9, for which the binding signal is 6760 PBM fluorescence, median of replicate spots.

B10: Table S2 A row 568 (dsDNA)
DNA 1: GTGGGGCAGGATGTGCTTGCCTGGCTGCGGTTGGAC
DNA 2: GTCCAACCGCAGCCAGGCAAGCACATCCTGCCCCAC
Take B10: the binding signal was 11400 PBM fluorescence, median of replicate spots.

B11: Table S2 A row 911 (dsDNA)
DNA 1: TTACACAACAGGAAACTATGTTTAGCGGTTAATCCA
DNA 2: TGGATTAACCGCTAAACATAGTTTCCTGTTGTGTAA
As for B11, the binding signal was 9030 PBM fluorescence, median of replicate spots.

B12: Table S2 A row 104 (dsDNA)
DNA 1: TGGGGACCACTGTCAGGATGTGGTCACTGGAGTCAC
DNA 2: GTGACTCCAGTGACCACATCCTGACAGTGGTCCCCA
In the case of B12, the binding signal was 6580 PBM fluorescence, median of replicate spots.

B13: Table S2 A row 1132 (dsDNA)
DNA 1: GCGCAAAGCCGGAAGGAGGGGTTTGCGGCTGGGGAG
DNA 2: CTCCCCAGCCGCAAACCCCTCCTTCCGGCTTTGCGC
On to B13, for which the binding signal is 7650 PBM fluorescence, median of replicate spots.

B14: Table S2 A row 866 (dsDNA)
DNA 1: CTGAAACAGGAAGCTGAGGGTGCGGTTGGGGGAGGA
DNA 2: TCCTCCCCCAACCGCACCCTCAGCTTCCTGTTTCAG
In the case of B14, the binding signal is 6680 PBM fluorescence, median of replicate spots.

B15: Table S2 A row 1188 (dsDNA)
DNA 1: CCCACTGCGCCAGGATGTGGTCAGGTCGGTGACGTT
DNA 2: AACGTCACCGACCTGACCACATCCTGGCGCAGTGGG
In the case of B15, the binding signal was 9170 PBM fluorescence, median of replicate spots.

B16: Table S2 A row 332 (dsDNA)
DNA 1: AACAGGAAGTGGTCTTAGAGATCATGCGGTTCAGAG
DNA 2: CTCTGAACCGCATGATCTCTAAGACCACTTCCTGTT
In the case of B16, the binding signal was 10100 PBM fluorescence, median of replicate spots.

B17: Table S2 A row 132 (dsDNA)
DNA 1: CGTCTAATTGCAGGAAGTGGTTTGAAATGTTAATCT
DNA 2: AGATTAACATTTCAAACCACTTCCTGCAATTAGACG
With B17, the binding signal is 7750 PBM fluorescence, median of replicate spots.

B18: Table S2 A row 364 (dsDNA)
DNA 1: AATGAAGGAGGGGCAGGATGTGGTCTTGGTGAATCA
DNA 2: TGATTCACCAAGACCACATCCTGCCCCTCCTTCATT
Turning to B18, the binding signal is 7160 PBM fluorescence, median of replicate spots.

B19: Table S2 A row 123 (dsDNA)
DNA 1: TTTATCATGAATGCAGGATGTGGGCAGACTCACAGC
DNA 2: GCTGTGAGTCTGCCCACATCCTGCATTCATGATAAA
Take B19: the binding signal is 6920 PBM fluorescence, median of replicate spots.

B20: Table S2 A row 1404 (dsDNA)
DNA 1: ATAGACTCAGGAAGTGATTGTGGTAAGATTCTATAT
DNA 2: ATATAGAATCTTACCACAATCACTTCCTGAGTCTAT
With B20, the binding signal was 8880 PBM fluorescence, median of replicate spots.

B21: Table S2 A row 1358 (dsDNA)
DNA 1: CAGCCTTGCCGGAAGGCAGAGTTTGTGGTCAGACCG
DNA 2: CGGTCTGACCACAAACTCTGCCTTCCGGCAAGGCTG
In the case of B21, the binding signal was 6650 PBM fluorescence, median of replicate spots.

B22: Table S2 A row 721 (dsDNA)
DNA 1: AGTGCAGAGTGGACAGGATGTGGTGGAGGTGAGAGA
DNA 2: TCTCTCACCTCCACCACATCCTGTCCACTCTGCACT
With B22, the binding signal was 9260 PBM fluorescence, median of replicate spots.

B23: Table S2 A row 1174 (dsDNA)
DNA 1: CCTGCGGATCACGGAAGTGGCTGCGGTCGGCGCCAT
DNA 2: ATGGCGCCGACCGCAGCCACTTCCGTGATCCGCAGG
For the molecule B23, the binding signal was 11700 PBM fluorescence, median of replicate spots.

B24: Table S2 A row 1604 (dsDNA)
DNA 1: GGTGTGTTCTGGGGAGGAAGTGGGTTTTCAGGTTGT
DNA 2: ACAACCTGAAAACCCACTTCCTCCCCAGAACACACC
In the case of B24, the binding signal is 7210 PBM fluorescence, median of replicate spots.

B25: Table S2 A row 1364 (dsDNA)
DNA 1: CTCAGGGTACCAGGATGTGGTTTAGCTTAGGGGTGG
DNA 2: CCACCCCTAAGCTAAACCACATCCTGGTACCCTGAG
With B25, the binding signal is 9440 PBM fluorescence, median of replicate spots.

B26: Table S2 A row 147 (dsDNA)
DNA 1: GCAGTCAGAAGGTGCGGATGCGGTAAGGTATGCGCT
DNA 2: AGCGCATACCTTACCGCATCCGCACCTTCTGACTGC
For B26, the binding signal was 7480 PBM fluorescence, median of replicate spots.

B27: Table S2 A row 990 (dsDNA)
DNA 1: TCCTAAAGCAGGAAATAGTGAGGCTACCGCAGTGTC
DNA 2: GACACTGCGGTAGCCTCACTATTTCCTGCTTTAGGA
Turning to B27, the binding signal is 8320 PBM fluorescence, median of replicate spots.

B28: Table S2 A row 524 (dsDNA)
DNA 1: TATCTCCTATCTCCAGGAAGTGGTTAGCCCTAGGAG
DNA 2: CTCCTAGGGCTAACCACTTCCTGGAGATAGGAGATA
With B28, the binding signal was 9680 PBM fluorescence, median of replicate spots.

B29: Table S2 A row 155 (dsDNA)
DNA 1: GGGACAGACTCTCCAGGATGTGGTTGGATTTTGGGC
DNA 2: GCCCAAAATCCAACCACATCCTGGAGAGTCTGTCCC
In the case of B29, the binding signal is 7450 PBM fluorescence, median of replicate spots.

B30: Table S2 A row 316 (dsDNA)
DNA 1: GGCCTGTCACACACAGGAAGCGGTCACAGAAAAGCT
DNA 2: AGCTTTTCTGTGACCGCTTCCTGTGTGTGACAGGCC
With B30, the binding signal was 7880 PBM fluorescence, median of replicate spots.

B31: Table S2 A row 1449 (dsDNA)
DNA 1: GGGTTGGGTGCCGGATGCGGTGAGTGAGGTTCTCAT
DNA 2: ATGAGAACCTCACTCACCGCATCCGGCACCCAACCC
In the case of B31, the binding signal was 10600 PBM fluorescence, median of replicate spots.

B32: Table S2 A row 638 (dsDNA)
DNA 1: CAAGGCACCAACGGATGTGGTATCTGGTGAGGGCTT
DNA 2: AAGCCCTCACCAGATACCACATCCGTTGGTGCCTTG
For the molecule B32, the binding signal is 6740 PBM fluorescence, median of replicate spots.

B33: Table S2 A row 1319 (dsDNA)
DNA 1: GAGGAACCCAAAGTAGGATGTGGTTTTGCAATTGGA
DNA 2: TCCAATTGCAAAACCACATCCTACTTTGGGTTCCTC
Take B33: the binding signal was 6860 PBM fluorescence, median of replicate spots.

B34: Table S2 A row 1276 (dsDNA)
DNA 1: ATTTCGCTGAAAACAGGAAACCACGAAGCCCAGATG
DNA 2: CATCTGGGCTTCGTGGTTTCCTGTTTTCAGCGAAAT
Turning to B34, the binding signal was 7820 PBM fluorescence, median of replicate spots.

B35: Table S2 A row 1755 (dsDNA)
DNA 1: CAGAGCCAAACATGCGGAAGTGGTTACGTGTACTAG
DNA 2: CTAGTACACGTAACCACTTCCGCATGTTTGGCTCTG
In the case of B35, the binding signal is 6770 PBM fluorescence, median of replicate spots.

B36: Table S2 A row 1115 (dsDNA)
DNA 1: TCAATGACAGGAAGTTTTTAAACCACATACGGCTAA
DNA 2: TTAGCCGTATGTGGTTTAAAAACTTCCTGTCATTGA
Take B36: the binding signal is 9230 PBM fluorescence, median of replicate spots.

B37: Table S2 A row 1496 (dsDNA)
DNA 1: GCACTGTAGGCAGGATGTGGGCAGGGGAAACTCAGG
DNA 2: CCTGAGTTTCCCCTGCCCACATCCTGCCTACAGTGC
As to B37, the binding signal was 9520 PBM fluorescence, median of replicate spots.

B38: Table S2 A row 1610 (dsDNA)
DNA 1: ACACCTCAGGCAGGATGTGGTAGGGGTTGCCCCAGA
DNA 2: TCTGGGGCAACCCCTACCACATCCTGCCTGAGGTGT
In the case of B38, the binding signal is 6800 PBM fluorescence, median of replicate spots.

B39: Table S2 A row 99 (dsDNA)
DNA 1: CTTAGCACTTCAGCCGGAAACCACAGCATACATTTC
DNA 2: GAAATGTATGCTGTGGTTTCCGGCTGAAGTGCTAAG
For the molecule B39, the binding signal was 10100 PBM fluorescence, median of replicate spots.

B40: Table S2 A row 1336 (dsDNA)
DNA 1: CACCTCGGGGGTTTCCGGTCCGTGGTTAGCTCCTTC
DNA 2: GAAGGAGCTAACCACGGACCGGAAACCCCCGAGGTG
Take B40: the binding signal was 6540 PBM fluorescence, median of replicate spots.

B41: Table S2 A row 309 (dsDNA)
DNA 1: CTTAGAGTACCAGGATGTGGTTTGGCCTGGGGGTGG
DNA 2: CCACCCCCAGGCCAAACCACATCCTGGTACTCTAAG
Take B41: the binding signal is 8550 PBM fluorescence, median of replicate spots.

B42: Table S2 A row 456 (dsDNA)
DNA 1: AACAGGCAAAGGACAGGATGTGGTGAGCGTCGGCCC
DNA 2: GGGCCGACGCTCACCACATCCTGTCCTTTGCCTGTT
Take B42: the binding signal was 10800 PBM fluorescence, median of replicate spots.
